Assay results taken from article PMC3233348 (2012).

T1: methylamine dehydrogenase (MADH) (Paracoccus denitrificans, UniProt P22619)
T1 chain 1: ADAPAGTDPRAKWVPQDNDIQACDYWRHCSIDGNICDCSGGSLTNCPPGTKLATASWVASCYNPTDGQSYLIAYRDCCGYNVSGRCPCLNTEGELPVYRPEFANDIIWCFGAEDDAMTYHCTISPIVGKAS
T1 chain 2: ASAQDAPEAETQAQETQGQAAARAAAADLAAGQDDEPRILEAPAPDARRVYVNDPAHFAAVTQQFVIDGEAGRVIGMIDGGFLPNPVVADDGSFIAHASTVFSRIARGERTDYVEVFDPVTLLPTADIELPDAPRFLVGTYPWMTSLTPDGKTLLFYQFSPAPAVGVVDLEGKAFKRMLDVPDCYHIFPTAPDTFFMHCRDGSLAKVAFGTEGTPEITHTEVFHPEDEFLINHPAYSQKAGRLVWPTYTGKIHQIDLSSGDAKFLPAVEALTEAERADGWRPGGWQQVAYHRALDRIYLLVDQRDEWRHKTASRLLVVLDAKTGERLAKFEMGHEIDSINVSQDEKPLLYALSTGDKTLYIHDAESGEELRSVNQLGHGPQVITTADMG


Key:
[1] = molecular target: methylamine dehydrogenase (MADH) (Paracoccus denitrificans) (UniProt P22619); settings: cited from earlier work
[2] = molecular target: T1, methylamine dehydrogenase (MADH); test: steady-state kinetics competitive inhibition

amicyanin, sequence (P22364 27-131): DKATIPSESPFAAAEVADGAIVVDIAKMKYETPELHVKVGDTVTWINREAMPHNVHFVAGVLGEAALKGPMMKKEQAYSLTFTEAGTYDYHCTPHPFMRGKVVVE

| Ki [2] | Molecule | Kd [1] |
| --- | --- | --- |
|  | amicyanin (from UniProt P22364) | 5 µM |
| 7.2 µM | M98K amicyanin (protein) DKATIPSESPFAAAEVADGAIVVDIAKMKYETPELHVKVGDTVTWINREAMPHNVHFVAGVLGEAALKGPMKKKEQAYSLTFTEAGTYDYHCTPHPFMRGKVVVE |  |
